Data: article doi:10.1101/2021.03.19.436211 (bioRxiv, 2021)

What was measured:
crystal structure = molecular target: the molecule itself; assay: crystal structure
SEC-MALS = molecular target: the molecule itself; assay: SEC-MALS
SEC = molecular target: the molecule itself; assay: SEC

B1: mouse lipin 2 M-Lip^xtal domain (domain or fragment, UniProt Q99PI5 459-549, looked up)
chain: SAMDLPDVTLSLCGGLSENGEISKEKFMEHIITYHEFAENPGLIDNPNLVIRIYNRYYNWALAAPMILSLQVFQKSLPKATVESWVKDKMP
B1: binds (crystal structure).

B2: mouse lipin 1 M-Lip^xtal domain (as used for SEC-MALS) (domain or fragment, UniProt Q91ZP3-2 458-548, looked up)
chain: SLRDLPSIAISLCGGLSDHREITKDAFLEQAVSYQQFADNPAIIDDPNLVVKVGNKYYNWTTAAPLLLAMQAFQKPLPKATVESIMRDKMP
With B2 the “stoichiometry N” value (SEC-MALS) was 2.

B3: full-length mouse lipin 1α (purified from Sf9 cells) (enzyme, UniProt Q91ZP3-2 1-891, looked up)
chain: MNYVGQLAGQVFVTVKELYKGLNPATLSGCIDIIVIRQPNGSLQCSPFHVRFGKMGVLRSREKVVDIEINGESVDLHMKLGDNGEAFFVQETDNDQEIIPMYLATSPILSEGAARMESQLKRNSVDRIRCLDPTTAAQGLPPSDTPSTGSLGKKRRKRRRKAQLDNLKRDDNVNSSEDEDMFPIEMSSDEDTAPMDGSRTLPNDVPPFQDDIPKENFPSISTHPQSASYPSSDREWSPSPSPSGSRPSTPKSDSELVSKSADRLTPKNNLEMLWLWGELPQAAKSSSPHKMKESSPLGSRKTPDKMNFQAIHSESSDTFSDQSPTMARGLLIHQSKAQTEMQFVNEEDLESLGAAAPPSPVAEELKAPYPNTAQSSSKTDSPSRKKDKRSRHLGADGVYLDDLTDMDPEVAALYFPKNGDPGGLPKQASDNGARSANQSPQSVGGSGIDSGVESTSDSLRDLPSIAISLCGGLSDHREITKDAFLEQAVSYQQFADNPAIIDDPNLVVKVGNKYYNWTTAAPLLLAMQAFQKPLPKATVESIMRDKMPKKGGRWWFSWRGRNATIKEESKPEQCLTGKGHNTGEQPAQLGLATRIKHESSSSDEEHAAAKPSGSSHLSLLSNVSYKKTLRLTSEQLKSLKLKNGPNDVVFSVTTQYQGTCRCEGTIYLWNWDDKVIISDIDGTITRSDTLGHILPTLGKDWTHQGIAKLYHKVSQNGYKFLYCSARAIGMADMTRGYLHWVNERGTVLPQGPLLLSPSSLFSALHREVIEKKPEKFKVQCLTDIKNLFFPNTEPFYAAFGNRPADVYSYKQVGVSLNRIFTVNPKGELVQEHAKTNISSYVRLCEVVDHVFPLLKRSHSCDFPCSDTFSNFTFWREPLPPFENQDMHSASA
B3: binds (SEC).
